Measurements from article PMC12316266, “Biochemical analysis of human eIF4E-DCP2 interaction: Implications for the relationship between translation initiation and decapping”.

Tests used:
Dcp2 E147Q,E148Q = Dcp2 E147Q,E148Q (Homo sapiens, UniProt Q8IU60 1-420, E147Q;E148Q); test: MST; no Mg2+ (implied); MST: 100 mM NaCl, 50 mM Tris-Cl pH 7.9, 1 mM DTT, 100 ug/ml BSA, 37 C (10 mM MgCl2 only when stated), 4 nM RNA; EMSA: same buffer plus 5% glycerol, no Mg2+, 24; details: protein: recombinant; tags: His6-protein G-TEV tag, removed by TEV; label: 3' Cy5; single strand
Dcp2 [1] = target: T1, Dcp2 (Homo sapiens, UniProt Q8IU60 1-420); test: MST; no Mg2+; Hill coefficient 1.56 ± 0.49; MST: 100 mM NaCl, 50 mM Tris-Cl pH 7.9, 1 mM DTT, 100 ug/ml BSA, 37 C (10 mM MgCl2 only when stated), 4 nM RNA; EMSA: same buffer plus 5% glycerol, no Mg2+, 24; details: protein: recombinant; tags: His6-protein G-TEV tag, removed by TEV; label: 3' Cy5; single strand
eIF4E [2] = target: T2, eIF4E (Homo sapiens, UniProt P06730 1-217); test: EMSA; 10 mM MgOAc; 2.5 uM eIF4E; Cy5 label implied; MST: 100 mM NaCl, 50 mM Tris-Cl pH 7.9, 1 mM DTT, 100 ug/ml BSA, 37 C (10 mM MgCl2 only when stated), 4 nM RNA; EMSA: same buffer plus 5% glycerol, no Mg2+, 24; details: protein: recombinant; tags: His6-protein G-TEV tag, removed by TEV; label: 3' Cy5; single strand
T2 sequence (P06730 whole entry): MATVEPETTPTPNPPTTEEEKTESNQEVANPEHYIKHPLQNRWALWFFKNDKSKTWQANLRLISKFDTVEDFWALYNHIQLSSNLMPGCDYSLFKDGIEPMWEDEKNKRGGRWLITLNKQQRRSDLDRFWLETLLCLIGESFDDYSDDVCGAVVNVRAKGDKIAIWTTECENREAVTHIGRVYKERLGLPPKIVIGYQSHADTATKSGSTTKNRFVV

Dcp2 [3] = target: T1, Dcp2; test: MST; no Mg2+; RNA pre-incubated with 80 nM eIF4E; Hill coefficient 1.99 ± 0.83; MST: 100 mM NaCl, 50 mM Tris-Cl pH 7.9, 1 mM DTT, 100 ug/ml BSA, 37 C (10 mM MgCl2 only when stated), 4 nM RNA; EMSA: same buffer plus 5% glycerol, no Mg2+, 24; details: protein: recombinant; tags: His6-protein G-TEV tag, removed by TEV; label: 3' Cy5; single strand
Dcp2 [4] = target: T1, Dcp2; test: MST; no Mg2+; Hill coefficient 1.22 ± 0.39; MST: 100 mM NaCl, 50 mM Tris-Cl pH 7.9, 1 mM DTT, 100 ug/ml BSA, 37 C (10 mM MgCl2 only when stated), 4 nM RNA; EMSA: same buffer plus 5% glycerol, no Mg2+, 24; details: protein: recombinant; tags: His6-protein G-TEV tag, removed by TEV; label: 3' Cy5; single strand
eIF4E [5] = target: T2, eIF4E; test: EMSA; 10 mM MgOAc; 2.5 uM eIF4E; MST: 100 mM NaCl, 50 mM Tris-Cl pH 7.9, 1 mM DTT, 100 ug/ml BSA, 37 C (10 mM MgCl2 only when stated), 4 nM RNA; EMSA: same buffer plus 5% glycerol, no Mg2+, 24; details: protein: recombinant; tags: His6-protein G-TEV tag, removed by TEV; label: 3' Cy5 (implied); single strand
Dcp2 [6] = target: T1, Dcp2; test: MST; no Mg2+; Hill coefficient 1.89 ± 0.78; MST: 100 mM NaCl, 50 mM Tris-Cl pH 7.9, 1 mM DTT, 100 ug/ml BSA, 37 C (10 mM MgCl2 only when stated), 4 nM RNA; EMSA: same buffer plus 5% glycerol, no Mg2+, 24; details: protein: recombinant; tags: His6-protein G-TEV tag, removed by TEV; label: 3' Cy5; single strand
eIF4E [7] = target: T2, eIF4E; test: EMSA; no Mg2+; 625 nM eIF4E; MST: 100 mM NaCl, 50 mM Tris-Cl pH 7.9, 1 mM DTT, 100 ug/ml BSA, 37 C (10 mM MgCl2 only when stated), 4 nM RNA; EMSA: same buffer plus 5% glycerol, no Mg2+, 24; details: protein: recombinant; tags: His6-protein G-TEV tag, removed by TEV; single strand

## AGGAAAUAAGAGAGAAAAGAAGAGUAAGAAGAAAUAUAAGAGC (ssRNA, 5' m7GpppAm cap (2'-O-methyl on first A)) [m7G-capped 43-mer RNA, 3' Cy5]
Dcp2 E147Q,E148Q
  binding result: no binding
Dcp2 [1]
  apparent K (half saturation): 157 ± 26 nM
eIF4E [2]
  binding result: binds
Dcp2 [3]
  apparent K (half saturation): 72 ± 20 nM

## AGGAAAUAAGAGAGAAAAGAAGAGUAAGAAGAAAUAUAAGAGC (ssRNA, 5' triphosphate) [5' triphosphate 43-mer RNA]
Dcp2 [4]
  apparent K (half saturation): 151 ± 29 nM
eIF4E [2]
  binding result: no binding

## AGGAAAUAAGAGAGAAAAGAAGAGUAAGAAGAAAUAUAAGAGC (ssRNA, 5' ApppAm cap (2'-O-methyl on first A)) [A-capped 43-mer RNA]
eIF4E [5]
  binding result: no binding

## AGGAAAUAAGAGAGAAAAGAAGAGUAAGAAGAAAUAUAAGAGC (ssRNA, 5' monophosphate) [5' monophosphate 43-mer RNA]
Dcp2 [6]
  apparent K (half saturation): 96 ± 16 nM

## AGGAAAUAAGAGAGAAAAGAAGAGUAAGAAGAAAUAUAAGAGC (ssRNA, 5' m7GpppAm cap (2'-O-methyl on first A)) [m7G-capped 43-mer RNA, 3' unlabeled]
eIF4E [7]
  binding result: binds
